Experimental data published in patent EP4789728A2 (Serpin Pharma, LLC, dated 2026).
No end group written: not given here.

T1: recombinant LRP1-FC fusion protein (Cluster II) (UniProt Q07954 805-1184, limits assumed)
T1 construct: domain: Cluster II; Captured on protein G Dynabeads; not shown: Fc part
T1 sequence (looked up): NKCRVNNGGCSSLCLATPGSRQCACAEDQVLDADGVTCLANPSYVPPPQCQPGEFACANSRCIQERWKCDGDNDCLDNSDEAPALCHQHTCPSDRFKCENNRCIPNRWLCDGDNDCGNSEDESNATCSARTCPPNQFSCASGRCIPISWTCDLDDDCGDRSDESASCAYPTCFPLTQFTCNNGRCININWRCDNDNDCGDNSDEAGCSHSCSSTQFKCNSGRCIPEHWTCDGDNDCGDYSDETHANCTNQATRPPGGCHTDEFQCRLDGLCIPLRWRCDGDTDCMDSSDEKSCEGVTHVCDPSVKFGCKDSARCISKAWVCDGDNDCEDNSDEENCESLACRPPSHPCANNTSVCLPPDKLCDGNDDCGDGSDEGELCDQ

T2: Recombinant LRP1 (Cluster II) (UniProt Q07954 805-1184, limits assumed)
T2 construct: domain: Cluster II; Coated on the ELISA plate
T2 sequence (looked up): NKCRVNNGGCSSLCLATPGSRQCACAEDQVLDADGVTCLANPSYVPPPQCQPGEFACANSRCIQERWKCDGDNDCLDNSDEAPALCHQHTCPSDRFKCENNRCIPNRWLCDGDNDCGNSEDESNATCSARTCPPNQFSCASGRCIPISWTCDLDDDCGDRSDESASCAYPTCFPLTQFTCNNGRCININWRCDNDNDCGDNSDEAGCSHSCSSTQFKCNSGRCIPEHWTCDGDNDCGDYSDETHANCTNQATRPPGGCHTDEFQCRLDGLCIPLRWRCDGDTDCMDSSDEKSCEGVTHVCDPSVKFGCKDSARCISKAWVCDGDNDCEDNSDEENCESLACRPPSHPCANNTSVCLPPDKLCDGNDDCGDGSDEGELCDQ


What was measured:
[1] = target: T1, recombinant LRP1-FC fusion protein …; assay: Cy5.5-labelled peptide on LRP1-FC (Cluster II) protein G beads, flow cytometry
[2] = target: T2, Recombinant LRP1 (Cluster II); assay: ELISA, plate-bound recombinant LRP1 (Cluster II), increasing concentrations of biotinylated peptide, streptavidin HRP
[3] = target: TMPRSS2 (UniProt O15393 106-492, limits assumed); assay: cell-based or functional assay
Chain of TMPRSS2 (O15393 106-492 limits assumed): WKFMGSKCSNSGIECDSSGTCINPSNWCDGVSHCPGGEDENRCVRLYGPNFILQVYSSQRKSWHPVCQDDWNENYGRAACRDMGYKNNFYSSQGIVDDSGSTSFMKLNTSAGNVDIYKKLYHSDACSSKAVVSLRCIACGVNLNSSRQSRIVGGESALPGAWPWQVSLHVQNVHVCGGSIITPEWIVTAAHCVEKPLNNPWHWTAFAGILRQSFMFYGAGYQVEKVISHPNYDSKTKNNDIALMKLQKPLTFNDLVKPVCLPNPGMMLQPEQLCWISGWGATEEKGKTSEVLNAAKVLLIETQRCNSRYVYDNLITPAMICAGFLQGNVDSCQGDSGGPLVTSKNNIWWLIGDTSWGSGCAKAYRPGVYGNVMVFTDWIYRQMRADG

| binding result [1] | binding result [2] | IC50 of inhibition of TMPRSS2 activity [3] | Binder |
| --- | --- | --- | --- |
| no binding (tested: 1µg/ml) |  |  | VKFNKAAAAAAIEQNTK (not fully specified, also called SP16AALRP1 peptide) [SP16AALRP1] |
| no binding (tested: 1µg/ml) | no binding |  | FPKMVPQFNTELKIFPEVNIK (also: biotinylated in ELISA, site not given here, labelled with Cy5.5 in bead assay, site not given here, Contains the amino acids found in SP16 in scrambled orientation; also called scrambled control; scrambled control SP34 peptide) [SP34 (Scrambled Core)] |
|  |  | 1.12 µg/mL | VKFNKPFVFLXIEQNTK (not fully specified; Norleucine (Nle) in place of the methionine (VKFNKPFVFL[Nle]IEQNTK); N-terminus acetylated; C-terminus amidated; biotinylated in the ELISA (Figure 3); labelled with Cy5.5 in the bead assay (Figure 4)) [SP163M] |
